# Experimental data taken from article PMC4073527.
# Target: LRIM1 (An. gambiae)
# Assay: non-reducing SDS-PAGE western blot
substance,measurement,value
LRIM1 (natural protein),stoichiometry N,2
